The values that follow come from article PMC5647543, “The Two-State Prehensile Tail of the Antibacterial Toxin Colicin N” (Biophysical Journal, 2017).

For this assay, the target named is T1, ColN_(90–387) (ColN-RP), receptor binding and pore forming domains of colicin N (Escherichia coli, UniProt P08083 90-387).
T1 construct: In PDB 1A87 the first resolved residue is S91; source: purified as previously described (20, 26); 15N-labelled protein from bacteria grown in M9 minimal medium with 15NH4Cl; not shown: His6 (-SSHHHHHH), C-terminal, kept
T1 sequence (looked up): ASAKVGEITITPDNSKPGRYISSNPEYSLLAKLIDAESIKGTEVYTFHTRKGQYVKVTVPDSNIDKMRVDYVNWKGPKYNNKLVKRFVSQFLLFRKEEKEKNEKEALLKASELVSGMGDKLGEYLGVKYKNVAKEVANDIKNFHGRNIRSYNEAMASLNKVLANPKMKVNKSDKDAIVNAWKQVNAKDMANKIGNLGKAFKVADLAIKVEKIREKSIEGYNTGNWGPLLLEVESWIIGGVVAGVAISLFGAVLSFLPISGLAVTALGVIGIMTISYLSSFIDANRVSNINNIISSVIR
Nature of the assay: NMR titration; free unlabelled ColN-T added to 15N-labelled ColN-RP; 15N-1H HSQC chemical shift changes; spectra at 15°C. Particulars: both partners purified.

B1: ColN_(1–90) (ColN-T), isolated translocation domain of colicin N (domain or fragment)
chain: MGSNGADNAHNNAFGGGKNPGIGNTSGAGSNGSASSNRGNSNGWSWSNKPHKNDGFHSDGSYHITFHGDNNSKPKPGGNSGNRGNNGDGA
notes: colicin N (ColN), residues 1-90, the intrinsically disordered translocation (T-) domain; the whole toxin has 387 residues; 98-residue construct: residues 1-90 followed directly by Ser2His6; Used unlabelled in the NMR mixing experiment; also called T-domain; ColN-T(1-90)-SSHHHHHH; source: purified as previously described (20, 26), dialysed into 50 mM sodium phosphate, pH 7.6, 300 mM NaCl; not …
Turning to B1, the binding result was “binds”.
